{
  "source": "patent EP4763221A1",
  "about": "(Akeso Biopharma Co., Ltd., dated 2025)",
  "binders": {"B1": {"name": "anti-HER3 monoclonal antibody patritumab (antibody, human IgG1, kappa, V domains shown)", "VH": "QVQLQQWGAGLLKPSETLSLTCAVYGGSFSGYYWSWIRQPPGKGLEWIGEINHSGSTNYNPSLKSRVTISVETSKNQFSLKLSSVTAADTAVYYCARDKWTWYFDLWGRGTLVTVSS", "VL": "not shown", "notes": "IgG1/kappa, expressed in 293F cells; also called HER3-targeted monoclonal antibody patritumab"}},
  "key": {"[1]": {"target": "T1, human HER3-his (human, UniProt P21860 20-643)", "T1 construct": "Coating antigen of the ELISA; also called huHER3-his; antigen human HER3-his; not shown: his tag", "assay": "indirect ELISA, huHER3-his coated at 0.5 µg/mL; antibody 0 nM (blank, background); replicate 2"}, "[2]": {"target": "T1, human HER3-his", "assay": "indirect ELISA, huHER3-his coated at 0.5 µg/mL; antibody 0.037 nM; replicate 1"}, "[3]": {"target": "T1, human HER3-his", "assay": "indirect ELISA, huHER3-his coated at 0.5 µg/mL; antibody 0.001 nM; replicate 2"}, "[4]": {"target": "T1, human HER3-his", "assay": "indirect ELISA, huHER3-his coated at 0.5 µg/mL, goat anti-human IgG Fc-HRP"}, "[5]": {"target": "T2, HER3 on SK-BR-3 cell surface (UniProt P21860 20-1342, limits assumed)", "T2 construct": "whole, on cells; The target is the HER3 carried on SK-BR-3 cells; also called surface HER3 of SK-BR-3 cells; SK-BR-3 cells expressing HER3", "assay": "FACS on SK-BR-3 cells, anti-human IgG Fc-Alexa Fluor 647 detection"}, "[6]": {"target": "T1, human HER3-his", "assay": "indirect ELISA, huHER3-his coated at 0.5 µg/mL; antibody 0.111 nM; replicate 1"}, "[7]": {"target": "T1, human HER3-his", "assay": "indirect ELISA, huHER3-his coated at 0.5 µg/mL; antibody 0.012 nM; replicate 1"}, "[8]": {"target": "T1, human HER3-his", "assay": "indirect ELISA, huHER3-his coated at 0.5 µg/mL; antibody 0.001 nM; replicate 1"}, "[9]": {"target": "T1, human HER3-his", "assay": "indirect ELISA, huHER3-his coated at 0.5 µg/mL; antibody 0.333 nM; replicate 1"}, "[10]": {"target": "T1, human HER3-his", "assay": "indirect ELISA, huHER3-his coated at 0.5 µg/mL; antibody 0 nM (blank, background); replicate 1"}, "[11]": {"target": "T1, human HER3-his", "assay": "indirect ELISA, huHER3-his coated at 0.5 µg/mL; antibody 0.012 nM; replicate 2"}, "[12]": {"target": "T1, human HER3-his", "assay": "indirect ELISA, huHER3-his coated at 0.5 µg/mL; antibody 0.004 nM; replicate 1"}, "[13]": {"target": "T1, human HER3-his", "assay": "indirect ELISA, huHER3-his coated at 0.5 µg/mL; antibody 1.000 nM; replicate 1"}, "[14]": {"target": "T1, human HER3-his", "assay": "indirect ELISA, huHER3-his coated at 0.5 µg/mL; antibody 0.004 nM; replicate 2"}, "[15]": {"target": "T1, human HER3-his", "assay": "indirect ELISA, huHER3-his coated at 0.5 µg/mL; antibody 0.333 nM; replicate 2"}, "[16]": {"target": "T1, human HER3-his", "assay": "indirect ELISA, huHER3-his coated at 0.5 µg/mL; antibody 1.000 nM; replicate 2"}, "[17]": {"target": "T1, human HER3-his", "assay": "indirect ELISA, huHER3-his coated at 0.5 µg/mL; antibody 0.037 nM; replicate 2"}, "[18]": {"target": "T1, human HER3-his", "assay": "indirect ELISA, huHER3-his coated at 0.5 µg/mL; antibody 0.111 nM; replicate 2"}},
  "data": [
    {"binder": "B1", "values": [
      {"measurement": "absorbance at 450 nm", "setting": "[1]", "value": 0.087, "unit": "OD450"},
      {"measurement": "absorbance at 450 nm", "setting": "[2]", "value": 2.57, "unit": "OD450"},
      {"measurement": "absorbance at 450 nm", "setting": "[3]", "value": 0.394, "unit": "OD450"},
      {"measurement": "EC50", "setting": "[4]", "value": 0.009, "unit": "nM"},
      {"measurement": "EC50", "setting": "[5]", "value": 8.48, "unit": "nM"},
      {"measurement": "absorbance at 450 nm", "setting": "[6]", "value": 2.83, "unit": "OD450"},
      {"measurement": "absorbance at 450 nm", "setting": "[7]", "value": 1.78, "unit": "OD450"},
      {"measurement": "absorbance at 450 nm", "setting": "[8]", "value": 0.382, "unit": "OD450"},
      {"measurement": "absorbance at 450 nm", "setting": "[9]", "value": 2.89, "unit": "OD450"},
      {"measurement": "absorbance at 450 nm", "setting": "[10]", "value": 0.091, "unit": "OD450"},
      {"measurement": "absorbance at 450 nm", "setting": "[11]", "value": 1.77, "unit": "OD450"},
      {"measurement": "absorbance at 450 nm", "setting": "[12]", "value": 0.87, "unit": "OD450"},
      {"measurement": "absorbance at 450 nm", "setting": "[13]", "value": 2.87, "unit": "OD450"},
      {"measurement": "absorbance at 450 nm", "setting": "[14]", "value": 0.872, "unit": "OD450"},
      {"measurement": "absorbance at 450 nm", "setting": "[15]", "value": 2.86, "unit": "OD450"},
      {"measurement": "absorbance at 450 nm", "setting": "[16]", "value": 2.84, "unit": "OD450"},
      {"measurement": "absorbance at 450 nm", "setting": "[17]", "value": 2.57, "unit": "OD450"},
      {"measurement": "absorbance at 450 nm", "setting": "[18]", "value": 2.79, "unit": "OD450"}
    ]}
  ]
}
